Reference: paper PMC9691366, “Modulating the pharmacokinetic profile of Actinium-225-labeled macropa-derived radioconjugates by dual targeting of PSMA and albumin” (Theranostics, 2022)

Assays:
[1] = Ex vivo biodistribution in LNCaP tumor-bearing SCID mice; conditions: mouse, in vivo, 50 kBq per mouse; for tissue uptake at 1 h: 1 h p.i.; for tissue uptake at 4 h: 4 h p.i.; for tissue uptake at 24 h: 24 h p.i.; for tissue uptake at 48 h: 48 h p.i.; for tissue uptake at 72 h: 72 h p.i.; for tissue uptake at 120 h: 120 h p.i.
Source text: (§1) The biodistribution experiments with [^225Ac]Ac-mcp-M-alb-PSMA and [^225Ac]Ac-mcp-D-alb-PSMA were accomplished using LNCaP tumor-bearing mice. The SCID male mice (ENVIGO, Indianapolis, IN, USA) 8 weeks old were subcutaneously xenografted into the right flank with 10∙10^6 LNCaP cells (ATCC, Manassas, VA, USA) mixed with Matrigel Matrix (Corning Inc., Corning, NY, USA) at a 1:1 ratio. The tumor growth was periodically monitored by caliper-based measurements. When the tumor volume reached 200-300 mm^3 (i.e., approx. 6 weeks after the xenografting of the cells), the mice were enrolled in the biodistribution study. All experimental animals were housed in a specific-pathogen-free animal facility and all experiments with animals were performed in accordance with appropriate legal norms (Czech Law No. 246/1992) and with the approval of the Ministry of Education, Youth and Sports (MSMT-35035/2019-3) and approval of the Ethical committee of Faculty of Medicine and Dentistry, Palacky University in Olomouc. The number of animals was reduced as much as possible (n = 3-4 per group and time point) for in vivo experiments in order to strictly follow 3Rs principle.
(§2) For the purpose of biodistribution studies, the ^225Ac-radioconjugates were diluted with saline. The diluted ^225Ac-radioconjugates were applied retro-orbitally (r.o.) to the experimental animals at a dose of 50 kBq per mouse corresponding to 10 pmol of the PSMA-inhibitor. The radioactivity application was carried out under 2% isoflurane anesthesia (FORANE, Abbott Laboratories, Abbott Park, IL, USA) to minimize animal suffering and to prevent animal motion. The mice were sacrificed by cervical dislocation 1, 4, 24, 48, 72, and 120 h (plus 168 h for [^225Ac]Ac-mcp-D-alb-PSMA) post-injection and organs of interest (blood, spleen, pancreas, stomach, intestine, kidneys, liver, heart, lungs, muscle, bone, and tumor) were collected. The organs were weighed, and their radioactivity was counted on an automatic gamma counter. The uptake of the ^225Ac-radioconjugates was expressed as a percentage of injected dose per gram of the corresponding organ (%ID/g). The area under the curve (AUC) was determined for both tested PSMA ligands from non-decay-corrected data obtained from the ex vivo biodistribution data of the tumors, kidneys, and blood.

[2] = test system: LNCaP tumor-bearing SCID mice; assay: as above
Source text: as §1, §2

[3] = non-decay corrected biodistribution data, mean ± SD

Q: Which results are given for `O=C(O)CC[C@H](NC(=O)N[C@@H](CCCCNC(=O)[C@H](Cc1ccc2ccccc2c1)NC(=O)[C@H]1CC[C@H](CNC(=O)[C@H](CCCCn2cc(COc3cc(CN4CCOCCOCCN(Cc5cccc(C(=O)O)n5)CCOCCOCC4)nc(C(=O)O)c3)nn2)NC(=O)[C@H](CCC(=O)O)NC(=O)CCCc2ccc(I)cc2)CC1)C(=O)O)C(=O)O` [[^225Ac]Ac-mcp-M-alb-PSMA, metal not drawn]?
A: tissue to tissue ratio ([1]; male, SCID, total radioactivity): 1490; tissue uptake at 1 h ([1]; blood uptake (AV)): 6.47 %ID/g; tissue uptake at 4 h ([1]; blood uptake (AV)): 4.8 %ID/g; tissue uptake at 24 h ([1]; blood uptake (AV)): 0.54 %ID/g; tissue uptake at 48 h ([1]; blood uptake (AV)): 0.08 %ID/g; tissue uptake at 72 h ([1]; blood uptake (AV)): 0.03 %ID/g; tissue uptake at 120 h ([1]; blood uptake (AV)): 0.03 %ID/g; tissue uptake at 1 h ([1]; femur uptake (AV)): 0.61 %ID/g; tissue uptake at 4 h ([1]; femur uptake (AV)): 0.62 %ID/g; tissue uptake at 24 h ([1]; femur uptake (AV)): 0.32 %ID/g; tissue uptake at 48 h ([1]; femur uptake (AV)): 0.44 %ID/g; tissue uptake at 72 h ([1]; femur uptake (AV)): 0.32 %ID/g; tissue uptake at 120 h ([1]; femur uptake (AV)): 0.43 %ID/g; tissue uptake at 1 h ([1]; heart uptake (AV)): 2.03 %ID/g; tissue uptake at 4 h ([1]; heart uptake (AV)): 1.63 %ID/g; tissue uptake at 24 h ([1]; heart uptake (AV)): 0.34 %ID/g; tissue uptake at 48 h ([1]; heart uptake (AV)): 0.22 %ID/g; tissue uptake at 72 h ([1]; heart uptake (AV)): 0.15 %ID/g; tissue uptake at 120 h ([1]; heart uptake (AV)): 0.23 %ID/g; tissue uptake at 1 h ([1]; intestine uptake (AV)): 0.6 %ID/g; tissue uptake at 4 h ([1]; intestine uptake (AV)): 0.54 %ID/g; tissue uptake at 24 h ([1]; intestine uptake (AV)): 0.81 %ID/g; tissue uptake at 48 h ([1]; intestine uptake (AV)): 0.1 %ID/g; tissue uptake at 72 h ([1]; intestine uptake (AV)): 0.12 %ID/g; tissue uptake at 120 h ([1]; intestine uptake (AV)): 0.06 %ID/g; tissue uptake at 1 h ([1]; kidneys uptake (AV)): 29.5 %ID/g; tissue uptake at 4 h ([1]; kidneys uptake (AV)): 67.9 %ID/g; tissue uptake at 24 h ([1]; kidneys uptake (AV)): 33.1 %ID/g; tissue uptake at 48 h ([1]; kidneys uptake (AV)): 15.7 %ID/g; tissue uptake at 72 h ([1]; kidneys uptake (AV)): 9.59 %ID/g; tissue uptake at 120 h ([1]; kidneys uptake (AV)): 8.82 ± 4.4 %ID/g; tissue uptake at 1 h ([1]; liver uptake (AV)): 1.44 %ID/g; tissue uptake at 4 h ([1]; liver uptake (AV)): 1.43 %ID/g; tissue uptake at 24 h ([1]; liver uptake (AV)): 1.08 %ID/g; tissue uptake at 48 h ([1]; liver uptake (AV)): 1.19 %ID/g; tissue uptake at 72 h ([1]; liver uptake (AV)): 1.08 %ID/g; tissue uptake at 120 h ([1]; liver uptake (AV)): 1.27 %ID/g; tissue uptake at 1 h ([1]; lung uptake (AV)): 6.27 %ID/g; tissue uptake at 4 h ([1]; lung uptake (AV)): 4.99 %ID/g; tissue uptake at 24 h ([1]; lung uptake (AV)): 2.19 %ID/g; tissue uptake at 48 h ([1]; lung uptake (AV)): 1.77 %ID/g; tissue uptake at 72 h ([1]; lung uptake (AV)): 1.47 %ID/g; tissue uptake at 120 h ([1]; lung uptake (AV)): 1.73 %ID/g; tissue uptake at 1 h ([1]; muscle uptake (AV)): 0.53 %ID/g; tissue uptake at 4 h ([1]; muscle uptake (AV)): 0.51 %ID/g; tissue uptake at 24 h ([1]; muscle uptake (AV)): 0.14 %ID/g; tissue uptake at 48 h ([1]; muscle uptake (AV)): 0.07 %ID/g; tissue uptake at 72 h ([1]; muscle uptake (AV)): 0.08 %ID/g; tissue uptake at 120 h ([1]; muscle uptake (AV)): 0.12 %ID/g; tissue uptake at 1 h ([1]; pancreas uptake (AV)): 0.57 %ID/g; tissue uptake at 4 h ([1]; pancreas uptake (AV)): 0.57 %ID/g; tissue uptake at 24 h ([1]; pancreas uptake (AV)): 0.26 %ID/g; tissue uptake at 48 h ([1]; pancreas uptake (AV)): 0.1 %ID/g; tissue uptake at 72 h ([1]; pancreas uptake (AV)): 0.06 %ID/g; tissue uptake at 120 h ([1]; pancreas uptake (AV)): 0.07 %ID/g; tissue uptake at 1 h ([1]; spleen uptake (AV)): 7.24 %ID/g; tissue uptake at 4 h ([1]; spleen uptake (AV)): 3.4 %ID/g; tissue uptake at 24 h ([1]; spleen uptake (AV)): 1.24 %ID/g; tissue uptake at 48 h ([1]; spleen uptake (AV)): 1.31 %ID/g; tissue uptake at 72 h ([1]; spleen uptake (AV)): 1.12 %ID/g; tissue uptake at 120 h ([1]; spleen uptake (AV)): 1.43 %ID/g; tissue uptake at 1 h ([1]; stomach uptake (AV)): 0.83 %ID/g; tissue uptake at 4 h ([1]; stomach uptake (AV)): 0.58 %ID/g; tissue uptake at 24 h ([1]; stomach uptake (AV)): 0.39 %ID/g; tissue uptake at 48 h ([1]; stomach uptake (AV)): 0.17 %ID/g; tissue uptake at 72 h ([1]; stomach uptake (AV)): 0.1 %ID/g; tissue uptake at 120 h ([1]; stomach uptake (AV)): 0.11 %ID/g; tissue uptake at 1 h ([1]; tumor uptake (AV)): 5.96 %ID/g; tissue uptake at 4 h ([1]; tumor uptake (AV)): 18 %ID/g; tissue uptake at 24 h ([1]; tumor uptake (AV)): 29.5 %ID/g; tissue uptake at 48 h ([1]; tumor uptake (AV)): 36.5 %ID/g; tissue uptake at 72 h ([1]; tumor uptake (AV)): 38.7 %ID/g; tissue uptake at 120 h ([1]; tumor uptake (AV)): 46 %ID/g; tissue uptake at 128 h ([1]; tumor uptake (highest accumulation), 128 h p.i.): 46 ± 7.77 %ID/g; AUCTu-to-AUCBl ([2]; mouse, in vivo): 26; AUCTu-to-AUCKi ([2]; mouse, in vivo): 1.5; AUCTu-to-AUCLi ([2]; mouse, in vivo): 29; blood clearance: duration of excretion ([2]; mouse, in vivo): 24 h; maximal tumor uptake compared to counterpart without dedicated albumin binder ([2]; mouse, in vivo): approximately four times higher; AUC Blood [2, 3]: 132 ± 7.2 %ID/g.h; AUC Kidneys [2, 3]: 2269 ± 288 %ID/g.h; AUC Liver [2, 3]: 119 ± 4.6 %ID/g.h; AUC Tumor [2, 3]: 3494 ± 194 %ID/g.h
